# Data as given in patent US20180155451A1 (published 2018).
# T1: FcγRIIb (human, UniProt P31994 43-217)
# T1 construct: extracellular domain; also called 2b; FcgRIIb
# T1 sequence (looked up): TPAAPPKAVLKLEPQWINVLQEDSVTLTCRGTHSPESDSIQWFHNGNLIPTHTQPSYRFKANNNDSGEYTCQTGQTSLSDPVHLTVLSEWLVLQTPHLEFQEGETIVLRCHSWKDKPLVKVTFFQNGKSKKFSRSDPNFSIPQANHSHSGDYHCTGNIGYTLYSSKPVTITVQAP
# T2: FcγRIIb extracellular domain with C-terminal His tag (human, UniProt P31994 43-217)
# T2 construct: extracellular domain; also called 2b; FcgRIIb; not shown: His tag at the C terminus
# T2 sequence (looked up): T1 sequence (looked up)
# B1: GpH7-A5/GpH7-B3 variant S337_20W/GpL16-k0 (antibody, human IgG1, kappa)
# heavy 1: not shown
# heavy 2: not shown
# light: DIVMTQSPLSLPVTPGEPASISCQASESLVHSNRNTYLHWYLQKPGQSPQLLIYKVSNRFSGVPDRFSGSGSGTDFTLKISRVEAEDVGVYYCSQNTHVPPTFGQGTKVEIERTVAAPSVFIFPPSDEQLKSGTASVVCLLNNFYPREAKVQWKVDNALQSGNSQESVTEQDSKDSTYSLSSTLTLSKADYEKHKVYACEVTHQGLSSPVTKSFNRGEC
# notes: also called He Ab S337_20W
# B2: GpH7-A5/GpH7-B3 variant T335_07I/GpL16-k0 (antibody, human IgG1, kappa)
# heavy 1: not shown
# heavy 2: not shown
# light: B1 light
# notes: also called He Ab T335_07I
# B3: GpH7-A5/GpH7-B3 variant T335_10E/GpL16-k0 (antibody, human IgG1, kappa)
# heavy 1: not shown
# heavy 2: not shown
# light: B1 light
# notes: also called He Ab T335_10E
# B4: GpH7-A5/GpH7-B3 variant T335_13S/GpL16-k0 (antibody, human IgG1, kappa)
# heavy 1: not shown
# heavy 2: not shown
# light: B1 light
# notes: also called He Ab T335_13S
# B5: GpH7-A5/GpH7-B3 variant T335_15Y/GpL16-k0 (antibody, human IgG1, kappa)
# heavy 1: not shown
# heavy 2: not shown
# light: B1 light
# notes: also called He Ab T335_15Y
# B6: GpH7-A5/GpH7-B3 variant T335_16H/GpL16-k0 (antibody, human IgG1, kappa)
# heavy 1: not shown
# heavy 2: not shown
# light: B1 light
# notes: also called He Ab T335_16H
# B7: GpH7-A5/GpH7-B3 variant T335_18N/GpL16-k0 (antibody, human IgG1, kappa)
# heavy 1: not shown
# heavy 2: not shown
# light: B1 light
# notes: also called He Ab T335_18N
# B8: GpH7-A5/GpH7-B3 variant T335_19Q/GpL16-k0 (antibody, human IgG1, kappa)
# heavy 1: not shown
# heavy 2: not shown
# light: B1 light
# notes: also called He Ab T335_19Q
# B9: GpH7-A5/GpH7-B3 variant T335_20W/GpL16-k0 (antibody, human IgG1, kappa)
# heavy 1: not shown
# heavy 2: not shown
# light: B1 light
# notes: also called He Ab T335_20W
# B10: GpH7-A5/GpH7-B3 variant V266_06M/GpL16-k0 (antibody, human IgG1, kappa)
# heavy 1: not shown
# heavy 2: not shown
# light: B1 light
# notes: also called He Ab V266_06M
# B11: GpH7-A5/GpH7-B3 variant Y296_20W/GpL16-k0 (antibody, human IgG1, kappa)
# heavy 1: not shown
# heavy 2: not shown
# light: B1 light
# notes: also called He Ab Y296_20W
# B12: GpH7-A5/GpH7-B3 variant V266_01G/GpL16-k0 (antibody, human IgG1, kappa)
# heavy 1: not shown
# heavy 2: not shown
# light: B1 light
# notes: He Ab: mutation in the GpH7-B3 H chain only; also called He Ab
# B13: GpH7-A5/GpH7-B3 variant A327_07I/GpL16-k0 (antibody, human IgG1, kappa)
# heavy 1: not shown
# heavy 2: not shown
# light: B1 light
# notes: as for B12
# B14: GpH7-A5/GpH7-B3 variant A327_09D/GpL16-k0 (antibody, human IgG1, kappa)
# heavy 1: not shown
# heavy 2: not shown
# light: B1 light
# notes: as for B12
# B15: GpH7-A5/GpH7-B3 variant A327_10E/GpL16-k0 (antibody, human IgG1, kappa)
# heavy 1: not shown
# heavy 2: not shown
# light: B1 light
# notes: as for B12
# B16: GpH7-A5/GpH7-B3 variant A327_18N/GpL16-k0 (antibody, human IgG1, kappa)
# heavy 1: not shown
# heavy 2: not shown
# light: B1 light
# notes: as for B12
# B17: GpH7-A5/GpH7-B3 variant A330_01G/GpL16-k0 (antibody, human IgG1, kappa)
# heavy 1: not shown
# heavy 2: not shown
# light: B1 light
# notes: as for B12
# B18: GpH7-A5/GpH7-B3 variant D265_03V/GpL16-k0 (antibody, human IgG1, kappa)
# heavy 1: not shown
# heavy 2: not shown
# light: B1 light
# notes: as for B12
# B19: GpH7-A5/GpH7-B3 variant D265_04F/GpL16-k0 (antibody, human IgG1, kappa)
# heavy 1: not shown
# heavy 2: not shown
# light: B1 light
# notes: as for B12
# B20: GpH7-A5/GpH7-B3 variant D265_06M/GpL16-k0 (antibody, human IgG1, kappa)
# heavy 1: not shown
# heavy 2: not shown
# light: B1 light
# notes: as for B12
# B21: GpH7-A5/GpH7-B3 variant D265_07I/GpL16-k0 (antibody, human IgG1, kappa)
# heavy 1: not shown
# heavy 2: not shown
# light: B1 light
# notes: as for B12
# B22: GpH7-A5/GpH7-B3 variant D265_08L/GpL16-k0 (antibody, human IgG1, kappa)
# heavy 1: not shown
# heavy 2: not shown
# light: B1 light
# notes: as for B12
# B23: GpH7-A5/GpH7-B3 variant D265_10E/GpL16-k0 (antibody, human IgG1, kappa)
# heavy 1: not shown
# heavy 2: not shown
# light: B1 light
# notes: as for B12
# Biological target: T1, FcγRIIb
# Assay: SPR (Biacore), binding relative to GpH7-A5/GpH7-B3/GpL16-k0 = 100
# Procedure: (§1) Analysis of interaction between objective antibody and the FcγR was carried out using Biacore T100 (GE Healthcare). HBS-EP+ (GE Healthcare) was used as the running buffer, and the measurement temperature was set to 25° C. Chips produced by immobilizing the antigen peptide by the amine coupling method to a Series S Sencor Chip CM5 (GE Healthcare), or alternatively, chips produced by allowing preliminarily biotinylated antigen peptides to interact with and immobilize onto a Series S Sensor Chip SA (certified) (GE Healthcare) were used. Antibodies of interest were captured onto an antigen peptide-immobilized chip, and allowed to interact to each FcγR diluted with running buffer. To regenerate and repeatedly use the chip, the antibodies captured on the chip were washed off by reacting 10 mM glycine-HCl, pH 1.5.
# (§2) The FcγR-binding activity of each antibody was assessed primarily using as an indicator the FcγR-binding activity and dissociation constant for FcγR.
row,He/Con_2b,Binder
1,109 % of control,B1
2,106 % of control,B2
3,108 % of control,B3
4,102 % of control,B4
5,108 % of control,B5
6,102 % of control,B6
7,102 % of control,B7
8,100 % of control,B8
9,104 % of control,B9
10,251 % of control,B10
11,103 % of control,B11

# Biological target: T3, FcγRIIIa extracellular domain with C-terminal His tag (human, UniProt P08637 17-208)
# T3 construct: extracellular domain; also called 3a; FcgRIIIa; not shown: His tag at the C terminus
# Assay: SPR (Biacore), relative binding, GpH7-A5/GpH7-B3/GpL16-k0 = 100
# Procedure: as §1, §2
# T3 sequence (P08637 17-208): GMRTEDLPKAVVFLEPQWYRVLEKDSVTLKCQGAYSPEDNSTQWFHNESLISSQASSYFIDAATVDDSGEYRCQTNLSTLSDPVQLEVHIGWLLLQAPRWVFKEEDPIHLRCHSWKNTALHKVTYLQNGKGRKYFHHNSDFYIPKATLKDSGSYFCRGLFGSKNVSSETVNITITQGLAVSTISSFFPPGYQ
row,He/Con_3a,Binder
1,24 % of control,B12
2,42.4 % of control,B13
3,83.7 % of control,B14
4,68.6 % of control,B15
5,61.1 % of control,B16
6,89.1 % of control,B17
7,0.6 % of control,B18
8,0 % of control,B19
9,2.6 % of control,B20
10,-0.8 % of control,B21
11,0 % of control,B22
12,20.1 % of control,B23

# Biological target: T2, FcγRIIb extracellular domain with …
# Assay: as above
# Procedure: as §1, §2
row,He/Con_2b,Binder
1,51.5 % of control,B12
2,127 % of control,B13
3,172 % of control,B14
4,140 % of control,B15
5,113 % of control,B16
6,104 % of control,B17
7,3.2 % of control,B18
8,3.2 % of control,B19
9,10 % of control,B20
10,1.3 % of control,B21
11,4.6 % of control,B22
12,38.2 % of control,B23
